{"source": "paper PMC4141020", "about": "(Traffic (Copenhagen, Denmark), 2014)", "molecular_target": "T1, Mpl expressed as an mKO2 fusion protein (Mpl^mKO2) (human, UniProt P40238 26-635)", "T1 sequence (looked up)": "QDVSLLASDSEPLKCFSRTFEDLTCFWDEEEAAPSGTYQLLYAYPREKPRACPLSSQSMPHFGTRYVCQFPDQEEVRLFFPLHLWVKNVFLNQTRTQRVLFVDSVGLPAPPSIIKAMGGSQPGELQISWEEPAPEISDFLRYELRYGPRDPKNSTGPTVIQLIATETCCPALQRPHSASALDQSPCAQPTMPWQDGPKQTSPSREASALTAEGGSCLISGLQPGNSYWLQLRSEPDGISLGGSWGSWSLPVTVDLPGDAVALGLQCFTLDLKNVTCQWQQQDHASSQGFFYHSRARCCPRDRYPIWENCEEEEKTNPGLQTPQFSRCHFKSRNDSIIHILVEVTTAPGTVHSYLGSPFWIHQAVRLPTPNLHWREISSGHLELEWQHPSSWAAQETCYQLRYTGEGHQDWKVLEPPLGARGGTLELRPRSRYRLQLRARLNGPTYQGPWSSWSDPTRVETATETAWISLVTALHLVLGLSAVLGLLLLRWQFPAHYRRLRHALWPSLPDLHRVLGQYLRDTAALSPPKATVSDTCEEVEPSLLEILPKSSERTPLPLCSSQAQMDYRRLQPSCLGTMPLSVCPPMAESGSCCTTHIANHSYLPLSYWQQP", "test": "co-IP"}
{"binder": "Jak2WT (endogenous wildtype Jak2 of K562 cells) (enzyme, human (endogenous in K562), UniProt O60674 1-1132, looked up) MGMACLTMTEMEGTSTSSIYQNGDISGNANSMKQIDPVLQVYLYHSLGKSEADYLTFPSGEYVAEEICIAASKACGITPVYHNMFALMSETERIWYPPNHVFHIDESTRHNVLYRIRFYFPRWYCSGSNRAYRHGISRGAEAPLLDDFVMSYLFAQWRHDFVHGWIKVPVTHETQEECLGMAVLDMMRIAKENDQTPLAIYNSISYKTFLPKCIRAKIQDYHILTRKRIRYRFRRFIQQFSQCKATARNLKLKYLINLETLQSAFYTEKFEVKEPGSGPSGEEIFATIIITGNGGIQWSRGKHKESETLTEQDLQLYCDFPNIIDVSIKQANQEGSNESRVVTIHKQDGKNLEIELSSLREALSFVSLIDGYYRLTADAHHYLCKEVAPPAVLENIQSNCHGPISMDFAISKLKKAGNQTGLYVLRCSPKDFNKYFLTFAVERENVIEYKHCLITKNENEEYNLSGTKKNFSSLKDLLNCYQMETVRSDNIIFQFTKCCPPKPKDKSNLLVFRTNGVSDVPTSPTLQRPTHMNQMVFHKIRNEDLIFNESLGQGTFTKIFKGVRREVGDYGQLHETEVLLKVLDKAHRNYSESFFEAASMMSKLSHKHLVLNYGVCVCGDENILVQEFVKFGSLDTYLKKNKNCINILWKLEVAKQLAWAMHFLEENTLIHGNVCAKNILLIREEDRKTGNPPFIKLSDPGISITVLPKDILQERIPWVPPECIENPKNLNLATDKWSFGTTLWEICSGGDKPLSALDSQRKLQFYEDRHQLPAPKWAELANLINNCMDYEPDFRPSFRAIIRDLNSLFTPDYELLTENDMLPNMRIGALGFSGAFEDRDPTQFEERHLKFLQQLGKGNFGSVEMCRYDPLQDNTGEVVAVKKLQHSTEEHLRDFEREIEILKSLQHDNIVKYKGVCYSAGRRNLKLIMEYLPYGSLRDYLQKHKERIDHIKLLQYTSQICKGMEYLGTKRYIHRDLATRNILVENENRVKIGDFGLTKVLPQDKEYYKVKEPGESPIFWYAPESLTESKFSVASDVWSFGVVLYELFTYIEKSKSPPAEFMRMIGNDKQGQMIVFHLIELLKNNGRLPRPDGCPDEIYMIMTECWNNNVNQRPSFRDLALRVDQIRDNMAG", "values": [{"measurement": "fold more co-immunoprecipitated than Jak2V617F with endogenous Mpl in HEL cells", "result": "~8", "unit": "fold"}]}
